Measurements: patent US20100196267A1
One block for each substance: values may come before it.

Key:
[1] = target: antigen on dog lymphoma cells recognised by L243 and hL243 (dog); test: flow cytometry on dog lymphoma aspirate, murine MAbs (none 3.85); control antibody
HLA-DR (human) [2] = test: indirect flow cytometry on Namalwa cells, FITC-GAM 2nd Ab (none 2.91); control antibody
[3] = target: antigen on dog lymphoma cells recognised by L243 and hL243 (dog); test: flow cytometry on dog lymphoma aspirate, murine MAbs (none 3.37); control antibody
[4] = target: CD74 on dog lymphoma cells (dog); test: flow cytometry on dog lymphoma aspirate, murine MAbs (none 3.37)
[5] = target: CD74 on dog lymphoma cells (dog); test: flow cytometry on dog lymphoma aspirate, murine MAbs (none 3.85)
CD74 (human) [6] = target: CD74 (human) (UniProt P04233); test: indirect flow cytometry on Namalwa cells, FITC-GAM 2nd Ab (none 2.91)
Chain of CD74 (human) (P04233 whole entry): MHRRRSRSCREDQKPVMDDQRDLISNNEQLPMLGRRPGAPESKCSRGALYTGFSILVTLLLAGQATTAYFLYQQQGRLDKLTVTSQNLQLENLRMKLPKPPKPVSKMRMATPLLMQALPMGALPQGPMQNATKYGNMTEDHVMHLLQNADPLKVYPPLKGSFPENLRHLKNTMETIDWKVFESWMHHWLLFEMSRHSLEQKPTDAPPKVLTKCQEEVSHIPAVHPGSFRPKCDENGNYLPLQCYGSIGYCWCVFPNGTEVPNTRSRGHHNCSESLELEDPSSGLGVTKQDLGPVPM

[7] = target: CD22 on dog lymphoma cells (dog); test: flow cytometry on dog lymphoma aspirate, murine MAbs (none 3.37)
[8] = target: CD22 on dog lymphoma cells (dog); test: flow cytometry on dog lymphoma aspirate, murine MAbs (none 3.85)
CD22 (human) = CD22 (human) (UniProt P20273); test: indirect flow cytometry on Namalwa cells, FITC-GAM 2nd Ab (none 2.91)
HLA-DR (human) [9] = test: indirect flow cytometry on Namalwa cells, FITC-GAM 2nd Ab (none 2.91); irrelevant antibody
[10] = target: Fcγ receptors on effector cells; test: cell-based or functional assay
CD74 (human) [11] = target: CD74 (human) (UniProt P04233); test: indirect flow cytometry, FITC-GAH Fc 2nd Ab, Raji cells (none 6.9)
[12] = target: CD74 on dog lymphoma cells (dog); test: flow cytometry on dog lymphoma aspirate, humanized MAbs (none 4.48)
CD74 (human) [13] = target: CD74 (human) (UniProt P04233); test: indirect flow cytometry, FITC-GAH Fc 2nd Ab, Daudi cells (none 3.2)
CD74 (human) [14] = target: CD74 (human) (UniProt P04233); test: indirect flow cytometry, FITC-GAH Fc 2nd Ab, Ramos cells (none 3.1)
CD74 (human) [15] = target: CD74 (human) (UniProt P04233); test: indirect flow cytometry on Namalwa cells, FITC-GAH 2nd Ab (none 2.52)
CD74 (human) [16] = target: CD74 (human) (UniProt P04233); test: indirect flow cytometry, FITC-GAH Fc 2nd Ab, Namalwa cells (none 2.6)
CD74 (human) [17] = target: CD74 (human) (UniProt P04233); test: indirect FACS, FITC-GAH Fc 2nd Ab, Ramos cells (none 3.1); number split over two cells
CD74 (human) [18] = target: CD74 (human) (UniProt P04233); test: indirect flow cytometry, FITC-GAH Fc 2nd Ab, WSU-FSCCL cells (none 2.7)
CD74 (human) [19] = target: CD74 (human) (UniProt P04233); test: indirect FACS, FITC-GAH Fc 2nd Ab, WSU-FSCCL cells (none 2.6); number split over two cells
CD74 (human) [20] = target: CD74 (human) (UniProt P04233); test: indirect flow cytometry, FITC-GAH Fc 2nd Ab, SU-DHL-6 cells (none 4.6)
CD74 (human) [21] = target: CD74 (human) (UniProt P04233); test: indirect FACS, FITC-GAH Fc 2nd Ab, SU-DHL-6 cells (none 4.6); number split over two cells
CD74 (human) [22] = target: CD74 (human) (UniProt P04233); test: indirect FACS, FITC-GAH Fc 2nd Ab, Raji cells (none 6.8); number split over two cells
CD74 (human) [23] = target: CD74 (human) (UniProt P04233); test: indirect flow cytometry, FITC-GAH Fc 2nd Ab, RL cells (none 2.4)
CD74 (human) [24] = target: CD74 (human) (UniProt P04233); test: indirect FACS, FITC-GAH Fc 2nd Ab, Namalwa cells (none 2.5); number split over two cells
[25] = target: CD74 on dog lymphoma cells (dog); test: flow cytometry on dog lymphoma aspirate, humanized MAbs (none 3.24)
CD74 (human) [26] = target: CD74 (human) (UniProt P04233); test: indirect FACS, FITC-GAH Fc 2nd Ab, Daudi cells (none 3.1); number split over two cells
[27] = target: CD22 on dog lymphoma cells (dog); test: flow cytometry on dog lymphoma aspirate, humanized MAbs (none 4.48)
[28] = target: CD22 on dog lymphoma cells (dog); test: flow cytometry on dog lymphoma aspirate, humanized MAbs (none 3.24)
HLA-DR (human) [29] = test: indirect flow cytometry on Namalwa cells, FITC-GAH 2nd Ab (none 2.52); irrelevant antibody
[30] = target: T1, CD20 on dog lymphoma cells (dog) (UniProt Q3C2E2); test: flow cytometry on dog lymphoma aspirate, murine MAbs (none 3.37)
T1 sequence (looked up): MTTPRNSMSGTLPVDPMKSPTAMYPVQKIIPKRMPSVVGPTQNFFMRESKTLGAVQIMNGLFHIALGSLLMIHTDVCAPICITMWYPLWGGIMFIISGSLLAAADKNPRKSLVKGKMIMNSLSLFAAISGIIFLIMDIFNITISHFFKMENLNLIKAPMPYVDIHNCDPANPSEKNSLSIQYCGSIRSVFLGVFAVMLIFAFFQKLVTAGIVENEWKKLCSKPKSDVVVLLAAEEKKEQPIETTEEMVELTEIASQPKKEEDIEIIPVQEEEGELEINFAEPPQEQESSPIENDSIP

[31] = target: T1, CD20 on dog lymphoma cells (dog); test: flow cytometry on dog lymphoma aspirate, murine MAbs (none 3.85)
CD20 (human) = target: T2, CD20 (human) (UniProt P11836); test: indirect flow cytometry on Namalwa cells, FITC-GAM 2nd Ab (none 2.91)
T2 sequence (looked up): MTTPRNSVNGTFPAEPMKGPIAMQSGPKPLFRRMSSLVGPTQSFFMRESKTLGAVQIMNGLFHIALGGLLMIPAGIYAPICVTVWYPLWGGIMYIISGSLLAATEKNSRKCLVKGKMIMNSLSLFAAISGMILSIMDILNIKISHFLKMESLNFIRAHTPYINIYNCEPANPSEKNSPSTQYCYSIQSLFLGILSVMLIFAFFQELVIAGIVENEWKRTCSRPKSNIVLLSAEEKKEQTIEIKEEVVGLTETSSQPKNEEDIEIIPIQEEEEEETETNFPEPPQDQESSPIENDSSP

% [1]: 2.81% | GEO MEAN Fluorescence (HLA-DR (human) [2]): 3.64 | Mean FL [3]: 3.04
Substance: Ag8 (antibody)

Mean FL [4]: 4.01 | % [5]: 6.69% | GEO MEAN Fluorescence (CD74 (human) [6]): 17.3
Substance: LL1 (murine) (antibody)

Mean FL [7]: 3.73 | % [8]: 5.05% | GEO MEAN Fluorescence (CD22 (human)): 10.5
Substance: LL2 (murine) (antibody)

GEO MEAN Fluorescence (HLA-DR (human) [9]): 3.39
Substance: RS7 (murine) (antibody)

ADCC on Daudi cells, specific lysis corrected for the effect on effector cells (5 µg/ml, effector:target 50:1, 4 h) [10]: 48%
Substance: hL243γ1 (antibody)

ADCC on Daudi cells, specific lysis corrected for the effect on effector cells (5 µg/ml, effector:target 50:1, 4 h) [10]: 12%
Substance: hL243γ4P (antibody)

Geometric Mean Fluorescence (CD74 (human) [11]): 95.1 | % [12]: 4.71% | Geometric Mean Fluorescence (CD74 (human) [13]): 48.8 | Geometric Mean Fluorescence (CD74 (human) [14]): 23.3 | GEO MEAN Fluorescence (CD74 (human) [15]): 10.1 | Geometric Mean Fluorescence (CD74 (human) [16]): 7.8 | Geometric Mean Fluorescence (CD74 (human) [17]): 23.2 | Geometric Mean Fluorescence (CD74 (human) [18]): 8.7 | Geometric Mean Fluorescence (CD74 (human) [19]): 8.66 | Geometric Mean Fluorescence (CD74 (human) [20]): 17.3 | Geometric Mean Fluorescence (CD74 (human) [21]): 17.3 | Geometric Mean Fluorescence (CD74 (human) [22]): 95.1 | Geometric Mean Fluorescence (CD74 (human) [23]): 7.9 | Geometric Mean Fluorescence (CD74 (human) [24]): 7.81 | Mean FL [25]: 3.33 | Geometric Mean Fluorescence (CD74 (human) [26]): 48.8
Substance: hLL1 (antibody)

% [27]: 4.85% | Mean FL [28]: 3.37
Substance: hLL2 (antibody)

GEO MEAN Fluorescence (HLA-DR (human) [29]): 2.47
Substance: hRS7 (antibody)

Mean FL [30]: 3.11 | % [31]: 2.61% | GEO MEAN Fluorescence (CD20 (human)): 6.16
Substance: m2B8 (antibody)
